# Numbering of substitutions follows the chain as printed.
# B1: mAb T2 (antibody, human IgG1, kappa, V domains shown)
# VH: EVQLVESGGGLVQPGGSLRLSCAASGFTFTDYTMDWVRQAPGKGLEWVADVNPNSGGSIYNQRFKGRFTLSVDRSKNTLYLQMNSLRAEDTAVYYCARNLGPSFYFDYWGQGTLVTVSS
# VL: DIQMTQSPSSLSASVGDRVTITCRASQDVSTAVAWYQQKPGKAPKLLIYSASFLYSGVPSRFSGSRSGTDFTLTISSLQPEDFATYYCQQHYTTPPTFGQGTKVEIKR
# notes: Pertuzumab heavy chain with a mutated trastuzumab light chain
# B2: mAb T43 (antibody, V domains shown)
# VH: B1 VH with T30A, G57A
# VL: DIQMTQSPSSLSASVGDRVTITCRASQDVSTAVAWYQQKPGKAPKLLIYSASFLYYGVPSRFSGSRSGTDFTLTISSLQPEDFATYYCQQHYTWPPTFGQGTKVEIKR
# B3: mAb T5 (antibody, human IgG1, kappa, V domains shown)
# VH: B1 VH
# VL: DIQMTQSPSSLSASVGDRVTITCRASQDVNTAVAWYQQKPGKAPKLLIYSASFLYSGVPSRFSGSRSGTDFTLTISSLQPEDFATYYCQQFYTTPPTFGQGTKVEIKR
# notes: as for B1
# B4: mAb T26 (antibody, V domains shown)
# VH: B1 VH with T30A, G57A
# VL: DIQMTQSPSSLSASVGDRVTITCKASQDVSIGVAWYQQKPGKAPKLLIYSASYRYTGVPSRFSGSGSGTDFTLTISSLQPEDFATYYCQQYYIYPYTFGQGTKVEIKR
# B5: mAb T25 (antibody, V domains shown)
# VH: B1 VH with G57A
# VL: B4 VL
# notes: Residue 56 counted along the entry is also G
# B6: mAb T7 (antibody, human IgG1, kappa, V domains shown)
# VH: B1 VH
# VL: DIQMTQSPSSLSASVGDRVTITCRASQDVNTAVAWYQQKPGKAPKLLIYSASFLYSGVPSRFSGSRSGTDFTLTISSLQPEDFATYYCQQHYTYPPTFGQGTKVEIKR
# notes: as for B1
# B7: mAb T4 (antibody, human IgG1, kappa, V domains shown)
# VH: B1 VH
# VL: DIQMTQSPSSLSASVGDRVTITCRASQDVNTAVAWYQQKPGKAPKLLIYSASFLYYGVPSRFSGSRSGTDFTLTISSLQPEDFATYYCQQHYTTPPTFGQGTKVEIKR
# notes: as for B1
# B8: mAb T9 (antibody, human IgG1, kappa, V domains shown)
# VH: B1 VH
# VL: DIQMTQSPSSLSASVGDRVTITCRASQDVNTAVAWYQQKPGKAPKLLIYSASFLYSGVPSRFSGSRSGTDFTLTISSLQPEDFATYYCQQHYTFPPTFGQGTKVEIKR
# notes: as for B1
# B9: mAb T3 (antibody, human IgG1, kappa, V domains shown)
# VH: B1 VH
# VL: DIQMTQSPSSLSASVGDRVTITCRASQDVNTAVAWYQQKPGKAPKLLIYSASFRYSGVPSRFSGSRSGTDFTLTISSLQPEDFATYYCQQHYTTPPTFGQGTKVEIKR
# notes: as for B1
# B10: mAb T8 (antibody, human IgG1, kappa, V domains shown)
# VH: B1 VH
# VL: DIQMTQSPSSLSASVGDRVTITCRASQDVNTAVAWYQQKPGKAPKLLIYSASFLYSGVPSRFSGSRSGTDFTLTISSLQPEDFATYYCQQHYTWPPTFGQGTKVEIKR
# notes: as for B1
# B11: mAb T10 (antibody, human IgG1, kappa, V domains shown)
# VH: B1 VH
# VL: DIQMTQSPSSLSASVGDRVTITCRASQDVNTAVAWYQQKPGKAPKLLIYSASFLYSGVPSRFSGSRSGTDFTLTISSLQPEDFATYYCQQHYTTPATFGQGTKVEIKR
# notes: as for B1
# B12: mAb T12 (antibody, V domains shown)
# VH: not shown
# VL: B4 VL
# Target: T1, HER2 extracellular domain (human, UniProt P04626 23-652)
# T1 construct: extracellular domain; also called ErbB2; HER2 ECD
# Assay: ELISA, HER2 ECD coated on plate
# Protocol: (§1) The binding potency of antibodies to the antigen HER2 was determined using an ELISA assay. The HER2 extracellular domain was coated overnight on 96-well plates by adding 0.2 ug/100 ul/well of HER2 extracellular domain solution. The plates were washed 6 times with PBS, and blocked with 3% BSA and incubated for 2 hours. The plates were again washed 6 times with PBS. After 1 hour of binding, the plates were washed 6 times with PBS. Horse radish peroxidase (HRP) conjugated secondary antibody was added and incubated for 1 hr. HRP substrate TMB was added to each well and luminescence was read on plate reader. The data were then fitted into 4-parameter sigmoidal curve to generate IC50. Each sample was run in triplicate.
row,binding result,Binder
1,binds,B1
2,binds,B2
3,binds,B3
4,binds,B4
5,binds,B5
6,binds,B6
7,binds,B7
8,binds,B8
9,binds,B9
10,binds,B10
11,binds,B11

# Target: T1, HER2 extracellular domain
# Assay: ELISA, HER2 ECD coated on plate; T12 is the weaker comparator
# Protocol: as §1
row,binding result,Binder
1,binds,B12

# Source: US20200140568A1 (XUANZHU BIOPHARMACEUTICAL, published 2020)
